# Data as given in PMC10978931, “Structure and function of Semaphorin-5A glycosaminoglycan interactions” (Nature Communications, 2024).
# Columns and labels:
# [1] = target: the molecule itself; experiment: crystal structure; Sema5A_(TSR3-4), four crystal forms (apo, nitrate, sulfate, sucrose octasulfate), sitting drop at 20 °C, 1.56-2.72 Å
# [2] = target: the molecule itself; experiment: mass photometry; Sema5A_(sema-TSR1-7) alone, 100 nM (half of it at measurement), 100 mM NaCl
protein,measurement,setting,value
"human Semaphorin-5A TSR3-4, Sema5A_(TSR3-4) (residues 652P-765T) (domain or fragment, UniProt Q13591 652-765, looked up, C-mannosyl tryptophan at W656 and W659; N-glycans reduced to single residues by EndoF1 (crystals), Semaphorin-5A, human, UniProtKB Q13591, residues 652P-765T (thrombospondin type-1 repeats 3 and 4); The tag was cleaved by HRV 3C protease for crystallization; Inter-protomer disulfides C689-C689' and C733-C733'; source: HEK293T, transfected (with kifunensine for crystallization), purified (Ni-NTA, 3C cleavage, SEC); not shown: 3C-Avi-His6, C-terminal, cleaved) PHMFWTGWGPWERCTAQCGGGIQARRRICENGPDCAGCNVEYQSCNTNPCPELKKTTPWTPWTPVNISDNGGHYEQRFRYTCKARLADPNLLEVGRQRIEMRYCSSDGTSGCST",stoichiometry N,[1],2
"human Semaphorin-5A ectodomain Sema5A_(sema-TSR1-7) (residues 23E-944S) (domain or fragment, UniProt Q13591 23-944, looked up, Semaphorin-5A, human, UniProtKB Q13591, residues 23E-944S (sema, PSI and TSR1-7 domains); Glycosylated (11 predicted N-glycan sites); also called full-length ectodomain human Sema5A; Sema5A ectodomain; source: HEK293T, transfected, conditioned medium; purified (Ni-NTA, SEC); not shown: His6, C-terminal, kept) EAQGTTQCQRTEHPVISYKEIGPWLREFRAKNAVDFSQLTFDPGQKELVVGARNYLFRLQLEDLSLIQAVEWECDEATKKACYSKGKSKEECQNYIRVLLVGGDRLFTCGTNAFTPVCTNRSLSNLTEIHDQISGMARCPYSPQHNSTALLTAGGELYAATAMDFPGRDPAIYRSLGILPPLRTAQYNSKWLNEPNFVSSYDIGNFTYFFFRENAVEHDCGKTVFSRAARVCKNDIGGRFLLEDTWTTFMKARLNCSRPGEVPFYYNELQSTFFLPELDLIYGIFTTNVNSIAASAVCVFNLSAIAQAFSGPFKYQENSRSAWLPYPNPNPHFQCGTVDQGLYVNLTERNLQDAQKFILMHEVVQPVTTVPSFMEDNSRFSHVAVDVVQGREALVHIIYLATDYGTIKKVRVPLNQTSSSCLLEEIELFPERRREPIRSLQILHSQSVLFVGLREHVVKIPLKRCQFYRTRSTCIGAQDPYCGWDVVMKKCTSLEESLSMTQWEQSISACPTRNLTVDGHFGVWSPWTPCTHTDGSAVGSCLCRTRSCDSPAPQCGGWQCEGPGMEIANCSRNGGWTPWTSWSPCSTTCGIGFQVRQRSCSNPTPRHGGRVCVGQNREERYCNEHLLCPPHMFWTGWGPWERCTAQCGGGIQARRRICENGPDCAGCNVEYQSCNTNPCPELKKTTPWTPWTPVNISDNGGHYEQRFRYTCKARLADPNLLEVGRQRIEMRYCSSDGTSGCSTDGLSGDFLRAGRYSAHTVNGAWSAWTSWSQCSRDCSRGIRNRKRVCNNPEPKYGGMPCLGPSLEYQECNILPCPVDGVWSCWSPWTKCSATCGGGHYMRTRSCSNPAPAYGGDICLGLHTEEALCNTQPCPESWSEWSDWSECEASGVQVRARQCILLFPMGSQCSGNTTESRPCVFDS",stoichiometry N,[2],2
